The values below come from the DeepSol protein solubility set.

This series is described as follows: soluble on expression in E. coli; label from the status in PepcDB or PDB records.
As to “MKNMIKAASLGLIILSSSMMANAAEAAQKIGYINTAQVFQALPQREVVLQKMQEEFKDKAAELQAIQADAKTKIEKLKRDGQLMGQDEVEKLRIEIGQLDSKYKIKAQALEQASARREAEEKQKLFKVIQDAVKKVAEKEGYDIVLDTSSMQYGKPEHNLSEKVIKAIK”, the “soluble on expression in E. coli” value is recorded as “not soluble”.
With “MKNNPLISIYMPTWNRQQLAIRAIKSVLRQDYSNWEMIIVDDCSTSWEQLQQYVTALNDPRITYIHNDINSGACAVRNQAIMLAQGEYITGIDDDDEWTPNRLSVFLAHKQQLVTHAFLYANDYVCQGEVYSQPASLPLYPKSPYSRRLFYKRNIIGNQVFTWAWRFKECLFDTELKAAQDYDIFLRMVVEYGEPWKVEEATQILHINHGEMQITSSPKKFSGYFHFYRKHKDKFDRASKKYQLFTLYQIRNKRMTWRTLLTLLSVRNGKRLADGIRGRLEHHHHHH” the entry was “soluble”.
With “MKNPRHIAVIDIGKTNAKLALVDLQNHREIAVLTRPNTVLPGPPWRHFDTDGHWDFLLAALKVLHGEHGIDAISISTHGASVVLLDAQGDLAAPVLDYEHPIPADIAQAYDAIRPPFAQTGSARLANGLNVGAQLFYQFAQDPGLRDRTRHIVGYPQYWGHRLTGEFAWDVTSIGCHTDLWEPVTGRFSSLVDRLGIAEKLAPVRHCADVLGSILPEVAAATGLSADTPVTVGIHDSNASLYPHLLTQEAPFSVVSTGTWVVAMAVGSKVPGLDPTRDTLVNVNAMGQPVPSARFMGGREHEVIQAGQPCPPTPQDVAQVLADSVMILPAVEPASGPFQGRKMRWSGPEPAPGTGPRSAALSFYLALMTSTCLALIAARGVTIVEGPFAQNREFKSMLSVATGRAVLHSQSATGTSMGASLLFSSDRTPPLPQTNVSEEDAQAYRTYAKEWHQQITLEHHHHHH”, the “soluble on expression in E. coli” value is given as “not soluble”.
With “MKNPTVSIIIPVYNAEGTITRCLDSIIHQTYSSIEVIIIDDGSSDLSGSICDNYATKYNYIQVIHKKNEGVSIARQIGVKHSKGLYSIHVDADDYIDKCEIERMMDIALKFNADMVVCDYILEYKKNKFVYQKGMKDACDAFDFLKQIYNGIFIGTLWNKLIKTSLYNNVIFLKQCNYCEDVYILTQILSNNISINYINEALYHYCYDASSLTREINRNYIINRIIFIQEIEKILPLDLDLSRFKAGIKLSILKSGEYTYKEYINLYPNTNIPKELLNKRNLLFLSTANFFIGYQFLKILFNLKKRFKSFHL” the entry was “not soluble”; with “MKNTLLKLGVCVSLLGITPFVSTISSVQAERKVEHKVIKNETGTISISQLNKNVWVHTELGYFNGEAVPSNGLILNTSKGLVLVDSSWDDKLTKELIEMAEKKFKKSVTDVIITHAHADRIGGIKTLKERGIKAHSTTLTAELAKKNGYEEPLGDLQAITKLKFGNMKVETFYPGKGHTEDNIVVWLPQYNMLVGGCLVKSASAKDLGNITDAYVNEWSTSIENVLKRYENINFVVPGHGEVGDKGLLLHTLDLLK”, “not soluble”.
With “MKNTQFALFMVLNGRATEALTFYQEAFAGDILFKITNQEFKERLNPSLTIPAGEEHWLSHSILQMDTFQLQLADNPLFAGMNTTPTEQLTLSLTVNSRHSAKTIFEKLTCHPESCIIQEPIENEFATFYAIVKDPFGLVTQITHEKQADPTKKGS” the entry was “not soluble”; with “MKNWLAYINSLHSREIDLGLSRITSLAEKLSLNNFACPVVTVAGTNGKGSVVKSLESIYLAAGYKVAAYTSPHLLQFNERLRLNGEPATDELFIEAFKFIEDNRNHQPLSFFEFTTLAIFYICKKQNLDILLLEVGLGGRLDAVNIVEPDVAVITTIDIDHTDWLGEDRESIGREKAGIIRRHKPVIGGDPNLPNSVYEQVHLLEAPFYQLEKDFFAVSTKENWQWQGPTQDYQGLPLPSLKIENIATSLMVIHCLQSQLPVSQHSLIAGIKNAVLPGRFEWIQTPAPIVFDVAHNPQATAYLSEQLRKTDHAGRTLGVVGMLRDKDIPGALKPMLPCIDQWYAGTLSESRGATSANLQNVLSELQVENCYNFDSVADAFKKAVEDCRPQDRIVVFGSFYTVAMAKEVLLGGENGN”, “soluble”.
Consider “MKNYIAIHPGEILREEYLKEYALSAYALAKALNVPRTRIERIVAENSRITPDTALRLASFFDTTAEFWLNMQAAYDVSVLQAEKADEFSKISKFECRV”, for which the “soluble on expression in E. coli” value is “not soluble”.
The entry for “MKPEDFRASATRPFTGEEYLASLRDDREIYIYGDRVKDVTSHPAFRNAAASMARLYDALHDPQSKEKLCWETDTGNGGYTHKFFRYARSADELRQQRDAIAEWSRLTYGWMGRTPDYKAAFGSALGANPGFYGRFEDNAKTWYKRIQEACLYLNHAIVNPPIDRDKPVDQVKDVFISVDEEVDGGIVVSGAKVVATNSALTHYNFVGQGSAQLLGDNTDFALMFIAPMNTPGMKLICRPSYELVAGIAGSPFDYPLSSRFDENDAILVMDKVFIPWENVLIYRDFERCKQWFPQGGFGRLFPMQGCTRLAVKLDFITGALYKALQCTGSLEFRGVQAQVGEVVAWRNLFWSLTDAMYGNASEWHGGAFLPSAEALQAYRVLAPQAYPEIKKTIEQVVASGLIYLPSGVRDLHNPQLDKYLSTYCRGSGGMGHRERIKILKLLWDAIGSEFGGRHELYEINYAGSQDEIRMQALRQAIGSGAMKGMLGMVEQCMGDYDENGWTVPHLHNPDDINVLDRIRQ” is “not soluble”.
On to “MKPKFETVELLSPTGEVVELKVVKRGLAQARPEPVDRNKPAWIKAPLPTGPRYQALKAMVRELRLHTVCQEALCPNIGECWTHGTLTVMILGDICTRACKFCAVHTGNPKGLVDPEEPRRVAEAIARMGVRYVVLTSVDRDDLPDGGASHFAATIRAIKERAPGVLVEALTPDFQGDLKAVETVLAANPEVYAQNLETVRRLTPKVRDPRAGYEQTLKVLAHAKKVRPDILTKSSLMLGLGETEEEILEAMRDLRAAGVDILTLGQYLRPTPAHLPVARYVPPEDFKRYEAWGYELGFREVFAGPLVRSSYRADRVFLEATQR”, for which the “soluble on expression in E. coli” value is on record as “not soluble”.
For the sequence “MKPRKQDEKILSDQYSYFEPIISDSCDIKFDGDKRRIGSIFISHEEICFIRKEEDYIFKISLSDVVDYNTVVTIWKNQASLTLNDNRKITFYFVTNSPLTGFISILKTYMQLSRNKETIIPDDNLLINDDDEQTKVEIFDVVGLNYEGRRKELKKLIKKMKTNDAFFFLYSDLKGNELKEELLYEDKVYEIPDYEVIPGVFLQKEPDNPYDENAIKVMISNEYSEFHVGYVPREYASRLVNYIEDTVSCNAYINGGKYKTLDYLEEKIVTKESDYGLRIHVEYKVLEHHHHHH”, the “soluble on expression in E. coli” value is “soluble”.
On to “MKPTVNVVFNAHHPKDTQPLDKFFDKELKDTHHLDITVGYISEKSLQYLLLIAGTHPDLTITLTCGMHAREGMTAAQLHHARVLHDYLSDHDRGGVFVIPRLRYHGKIYLFHKNQHTDPIAYIGSANLSAIVPGYTSTFETGVILDPAPEDLVLHLNRDVVPLCVPIDTAHVPIIKDQESPMKHVAEATAVSTSDVVAIMSSPFTYSFDLKLKATASSNLNAHNSGGGARKQKNGSFLARNWYEGEIIVGVETTRLPGYPQNKSEFTAVTDDGWSFVCKISGGNGKNLRSKGDLSILGTWLKSRFIEQGALEYGEDATQENIDRFGRTHMTMRYHPDFDVWSFDLSQTPKP”, for which the “soluble on expression in E. coli” value is “not soluble”.
With “MKQKRLTFLLLLISNLFCASAQKWYKPEIDLKVEELLSQMTVEEKLGYIGGIDWMYTKSIDRLGIHRMRMSDGPQGIGTKGKSTAYPATVTLAATWNENLAYQYGKALGRDCRARNINVILGPAVNIYRAPMCGRNFEYMGEDPYLTSRICVGYIKGVQDQGVMATVKHFVANNSDYDRNNISNDIDERTLNEIYFPAYKAAIQEAEVGAIMTSYNLMNGIYTTENPWLLKEVLRNQWGFKGLVMSDWGSTHYCVPAARSGLDLEMAGGEKMNPKDMAYYLKTGDVTMDMVDEKVRHILRILIAFGFKDGTEADKSIALDDPQSVETA” the entry was “not soluble”; with “MKQTVLKNNLQNLLESAENILLLQGPVGDFFLRLADWLTANGKTVHKFNFNAGDDYFYPPTQAHTVVFNDNYDAFPEFLQEYITQHHIQAVVCFGDTRPYHVIAKRIANENQASFWAFEEGYFRPYYITLEKDGVNAFSPLPRRADFFLEQFPKLAQQEYKAPTPVHGGFTPMAKNAIRYYIELFRNPRKYPDYIHHRAPNAGHYLKPWSLSILKRLNYYIEDIQIAKRVEAGKYGKFFIVPLQVFNDSQVRIHCDFPSVRSFLLHVLSSFAEHAPADTNIIIKHHPMDRGFIDYWRDIKRFIKEHPELKGRVIYVHDVPLPVFLRHGLGMVTINSTSGLSGLIHNMPVKVLGRAYYDIPGITDQNTLAEFWNHPTPPDKELFHAYRMYHLNVTQINGNFYSQVFFPNKKTSNSSTPVI”, “not soluble”.
With “MKRAVITGLGIVSSIGNNQQEVLASLQEGRSGITFAQEFKDAGMRSHVWGDVKLQSEPKDLIDRKVLRFMSDASIYAYLAMQEAIADSGLSDSQVSNFRSGLVVGSGGGSPRNQVAGSDAMRTPRGLKGVGPYMVTKAMASGVSACLATPFKIKGVNYSISSACATSAHCIGHALELIQLGKQDIVFAGGGEELCWEMACEFDAMGALSTKYNDTPAKASRTYDQDRDGFVIAGGGGMVVVEELEHALARGAHIYAEIVGYGATSDGADMVAPSGEGAVRCMQMAMAGVDTPIDYMNVHGTSTPVGDVKELGAIREVFGNNTPAISSTKAMTGHSLGAAGVHEAIFSLLMVEHGFIAPSINIDNLDEQAQGMNIITETTQRELTTVMSNSFGFGGTNATLVMRKYQK”, the “soluble on expression in E. coli” value is recorded as “not soluble”.
The entry for “MKRKRIDIITLGCSKNLVDSEQLMRQLEEAGYSVTHDTENPEGEIAVINTCGFIGDAKEESINMILEFAERKEEGDLKKLFVMGCLSERYLQELAIEIPQVDKFYGKFNWKELLQDLGKTYHEELYIERTLTTPKHYAYLKISEGCDRKCSYCAIPIITGRHISKSMEEILDEVRYLVSQGVKEFQVIAQELTYYGVDLYKKQMLPELIERISEIPGVEWIRLHYAYPAHFPTDLFRVMRERDNVCKYMDIALQHISDNMLKLMRRQVSKEDTYKLIEQFRKEVPGIHLRTTLMVGHPGETEEDFEELKEFVRKARFDRMGAFAYSEEEGTYAAQQYEDSIPQEVKQARLDELMDIQQGISAELSAAKIGQQMKVIIDRIEGDYYIGRTEFDSPEVDPEVLISVSREELEVGQFYQVEVTDADDFDLYAKILNKYELEHHHHHH” is “soluble”; for “MKRNAWEVYGEVLKTARELGLEGEEQEVAKALLAWPKERFHALAARVGLKAKYLRHDLLPIAFLPEPLREALQGGLPLREAHRLHRLLKRGELSLQDLTGKDPKALMALPARPGEVDPRLPVWFFPPEPWEEALPMAVARALVQLYTREGELVLDPMAGRGTVVEAARALDRRAWGGDIAPRGPLVERADIRDLPRRFRKEAALVVLHPPTFSTWLREEGYREEAEERYGEYIRHISSFLDLCRPTLAPGGKLVLVARPRRTLTPKDLEAGHDFFLAPWERALAEADFRPLSYHLAVSQDGRQDWHLFVGEPRG” it is “soluble”; for “MKRTTLVMLLLTLCGFSSASFALSESEAEDLADLTAVFVYLKNDCGYQELPNNEIKRAIVYFAQQNRWDLHNYDSFNMKALGEDSYRDLRGIALPTPVKCKSLARDSLSLLAYAN” it is “not soluble”.
